# Article PMC3287977
# Experiments:
# [1] = target: A. fulgidus HypB, tag-free (Archaeoglobus fulgidus); test: SEC-MALS; AfHypB (0.5 mM) preloaded with 5 mM GMPPNP and 1 mM NiCl2, excess removed; Superdex-75 HR10/30, 50 mM Tris pH 7.5, 0.2 M NaCl, 5 mM MgCl2, 1 mM TCEP
# [2] = target: A. fulgidus HypA, tag-free (Archaeoglobus fulgidus) (UniProt O28904); test: SEC-MALS; equimolar AfHypA and AfHypB preloaded with GDP (monomeric form); Superdex-75 HR10/30, 50 mM Tris pH 7.5, 0.2 M NaCl, 1 mM TCEP, room temperature; peaks checked by SDS-PAGE
# Chain of UniProt O28904 (O28904 whole entry): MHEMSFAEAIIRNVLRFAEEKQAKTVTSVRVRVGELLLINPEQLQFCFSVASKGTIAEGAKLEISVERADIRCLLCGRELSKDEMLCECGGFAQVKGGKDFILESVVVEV
substance,measurement,setting,value
"A. fulgidus HypB, tag-free (natural protein)",stoichiometry N,[1],2
same,stoichiometry N,[2],1
